Results as given in paper PMC5241105 (Science (New York, N.Y.), 2016).

Target: thermolysin cleaved Ebola virus GP (GPTHL) (Ebola virus (EBOV), UniProt Q05320)
Experiment: BLI

| Binder | binding result | Kd |
| --- | --- | --- |
| Fab100 (antigen-binding fragment of mAb100) (Fab, V domains shown) VH: QVQLQESGPGLVKPSDTLSLTCTVSGGSLSSFYWSWIRQPPGKGLEWIGYIYYSGSPNYSPSLESRVTMSVDTTRNQISLKLDSVTAADTAVYYCVRASRSYYWGSYRPTAFDSWGQGTLVTVSS VL: YELTQPLSVSVSPGQTAIFTCSGDNLGDKYVCWFQQRPGQSPMLLIYQDNKRPSGIPERFSGSNSGNTATLTISGTQSTDEADYYCQTWDSTVVFGGGTKLTVL | binds |  |
| Fab114 (antigen-binding fragment of mAb114) (Fab, V domains shown) VH: EVQLVESGGGLIQPGGSLRLSCAASGFALRMYDMHWVRQTIDKRLEWVSAVGPSGDTYYADSVKGRFAVSRENAKNSLSLQMNSLTAGDTAIYYCVRSDRGVAGLFDSWGQGILVTVSS VL: DIQMTQSPSSLSASVGDRITITCRASQAFDNYVAWYQQRPGKVPKLLISAASALHAGVPSRFSGSGSGTHFTLTISSLQPEDVATYYCQNYNSAPLTFGGGTKVEIK |  | 8 nM |
